The values that follow come from US20210380702A1 (Regeneron, published 2021).

Where “and” joins values, the source holds several entries; their conditions need not be identical. Equal entries are not always repeated.

In test [1] the target is T1, full length human PD-L1 (amino acids 1 to 290 of NP_054862.1) on transfected cells (human, UniProt Q9NZQ7 19-290).
T1 construct: also called HEK293/hPD-L1; Raji/hPD-L1
Kind of test: FACS, 100 nM antibody. The method, then: (§1) The binding of anti-PD-L1 antibodies to a human embryonic kidney cell line (HEK293; ATCC, #CRL-1573) stably transfected with full length human PD-L1 (amino acids 1 to 290 of accession number NP_054862.1) (HEK293/hPD-L1) was determined by FACS.
(§2) For the assay, adherent cells were detached using enzyme-free dissociation buffer and blocked with complete medium. Cells were centrifuged and resuspended at a concentration of 2.8×10\hat{ }6 cells/mL in cold PBS containing 2% FBS. […] Cells were washed with D-PBS containing 2% FBS to remove unbound secondary detection reagents and fluorescence measurements were acquired using a HyperCyte (IntelliCyt, Inc.) flow cytometer. Data was analyzed using HyperCyte software.

Test [2] concerns the target T1, full length human PD-L1 (amino acids 1 …). Put plainly: cell-based or functional assay.
Test [3] deals with T2, recombinant cynomolgus monkey PD-L1 expressed with a C-terminal mouse IgG2a Fc tag (cynomolgus monkey).
T2 construct: also called MfPD-L1-mFc; monkey PD-L1-mFc
Put plainly: SPR (Biacore), mAb captured, 37C. Background: Surface plasmon resonance follows binding to a sensor surface in real time, without labels.

For test [4], the target named is T1, full length human PD-L1 (amino acids 1 …). Put plainly: FACS, 100 nM antibody, HEK293/hPD-L1 cells. The method, then:
as §1, §2

Test [5] deals with T3, recombinant human PD-L1 (amino acids 19-239 of NP_054862.1) expressed with a C-terminal mouse IgG2a Fc tag (human).
T3 construct: called dimeric; also called hPD-L1-mFc
Kind of test: competition ELISA: 0.5 nM hPD-L1-mFc binding to coated hPD-1-hFc. The method, then: (§3) The ability of monoclonal anti-PD-L1 antibodies to block human PD-L1 from binding to its binding partners, the human PD-1 and the human B7-1 receptors, was measured using two competition sandwich ELISA formats.
(§4) A dimeric human PD-1 protein comprised of a portion of the extracellular domain (amino acids 25-170 of accession number NP_005009.2 with a C93S change) that was expressed with a C-terminal hFc tag (hPD-1-hFc; SEQ ID: 350) and a dimeric human B7-1 protein comprised of a portion of the extracellular domain expressed with C-terminal hFc tag and hexahistidine tags (hB7-1-hFc-6His; R&D Systems, #140-B1) were separately coated at 2 μg/mL on a 96-well microtiter plate in a PBS buffer overnight at 4° C. […] These antibody-protein complexes were then incubated for 1 hour at room temperature (RT). […] The complexes were allowed to bind to the coated plates for 1 hour at RT. […] Samples were developed with a TMB solution (BD Biosciences, #51-2606KC and #51-2607KC) to produce a colorimetric reaction and neutralized with 1M sulfuric acid before measuring absorbance at 450 nm on a Victor X5 plate reader. Data analysis used a sigmoidal dose-response model within Prism™ software.

The target in test [6] is T3, recombinant human PD-L1 (amino acids …). Kind of test: competition ELISA: 8 nM hPD-L1-mFc binding to coated hB7-1-hFc-6His. The method, then: as §3, §4
The target in test [7] is T4, recombinant human PD-L1 (amino acids 19-239 of NP_054862.1) expressed with a C-terminal human IgG1 Fc tag (human).
T4 construct: also called hPD-L1-hFc
Put plainly: SPR (Biacore 3000): 100 nM hPD-L1-hFc + 500 nM mAb on captured hPD-1-mFc, 25C. On the procedure:
Next, inhibition studies for anti-PD-L1 monoclonal antibodies expressed with human Fc were performed on Biacore 3000 instrument. […] The entire experiment was performed at 25° C. in HBST running buffer (0.01 M HEPES pH7.4, 0.15M NaCl, 3 mM EDTA, 0.05% v/v Surfactant P20). The real-time binding responses were monitored during the entire course of the experiment and the binding response at the end of every step was recorded.

T2 sequence (chain, as listed by the source limits assumed): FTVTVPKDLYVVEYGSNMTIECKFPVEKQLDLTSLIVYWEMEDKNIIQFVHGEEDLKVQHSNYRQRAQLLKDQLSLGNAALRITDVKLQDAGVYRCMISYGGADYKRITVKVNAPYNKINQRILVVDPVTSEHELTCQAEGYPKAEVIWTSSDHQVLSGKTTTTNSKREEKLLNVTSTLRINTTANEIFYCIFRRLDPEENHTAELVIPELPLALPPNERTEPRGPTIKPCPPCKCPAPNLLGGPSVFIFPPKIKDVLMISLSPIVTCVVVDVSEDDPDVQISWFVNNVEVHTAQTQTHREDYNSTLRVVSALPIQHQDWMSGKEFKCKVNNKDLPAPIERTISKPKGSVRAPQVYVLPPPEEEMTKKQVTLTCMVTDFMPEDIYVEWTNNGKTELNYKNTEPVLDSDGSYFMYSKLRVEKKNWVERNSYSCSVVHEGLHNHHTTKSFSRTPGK
T3 sequence (chain, as listed by the source limits assumed): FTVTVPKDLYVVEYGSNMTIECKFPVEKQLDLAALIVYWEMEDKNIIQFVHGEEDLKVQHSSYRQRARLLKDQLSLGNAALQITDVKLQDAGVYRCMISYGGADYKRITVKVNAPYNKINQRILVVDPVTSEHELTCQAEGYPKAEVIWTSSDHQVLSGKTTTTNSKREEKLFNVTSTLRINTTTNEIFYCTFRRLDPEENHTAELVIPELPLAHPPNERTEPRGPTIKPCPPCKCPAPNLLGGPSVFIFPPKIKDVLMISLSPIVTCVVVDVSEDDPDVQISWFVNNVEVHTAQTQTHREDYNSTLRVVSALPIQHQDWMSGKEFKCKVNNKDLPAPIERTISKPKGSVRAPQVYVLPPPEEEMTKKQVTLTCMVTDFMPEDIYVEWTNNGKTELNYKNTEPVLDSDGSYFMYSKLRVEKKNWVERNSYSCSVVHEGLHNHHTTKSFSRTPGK
T4 sequence (chain, as listed by the source limits assumed): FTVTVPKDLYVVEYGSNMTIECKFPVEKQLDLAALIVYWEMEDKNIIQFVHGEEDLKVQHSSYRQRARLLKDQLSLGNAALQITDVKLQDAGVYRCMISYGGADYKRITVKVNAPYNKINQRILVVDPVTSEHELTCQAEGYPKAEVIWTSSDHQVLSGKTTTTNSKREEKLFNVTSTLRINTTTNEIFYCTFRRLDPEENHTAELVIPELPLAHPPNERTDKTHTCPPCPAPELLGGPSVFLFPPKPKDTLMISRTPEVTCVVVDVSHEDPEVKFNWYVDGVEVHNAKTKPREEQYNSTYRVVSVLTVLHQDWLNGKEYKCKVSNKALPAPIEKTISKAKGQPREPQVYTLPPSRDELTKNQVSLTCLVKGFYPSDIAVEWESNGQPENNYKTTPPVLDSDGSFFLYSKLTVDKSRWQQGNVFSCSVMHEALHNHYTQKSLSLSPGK
T1 sequence (Q9NZQ7 19-290 limits assumed): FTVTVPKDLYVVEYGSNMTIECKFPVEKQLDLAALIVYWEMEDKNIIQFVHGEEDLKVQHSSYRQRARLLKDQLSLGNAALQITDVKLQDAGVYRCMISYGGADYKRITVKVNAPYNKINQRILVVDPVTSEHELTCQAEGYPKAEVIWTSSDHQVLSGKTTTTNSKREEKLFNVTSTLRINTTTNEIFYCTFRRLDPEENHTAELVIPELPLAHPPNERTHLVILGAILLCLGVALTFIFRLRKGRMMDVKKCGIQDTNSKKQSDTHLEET

B1: H1H9396P2 (antibody, V domains shown)
VH: QVQLVQSGAEVEKPGASVKVSCKASGYIFTHYGISWVRQAPGQGLEWVGWISPYNGYTDYAQKLQGRVTLTTDTSTTTAYMELRNLRSDDTAMYYCSRGRGPYWSFDLWGRGTLVTVSS
VL: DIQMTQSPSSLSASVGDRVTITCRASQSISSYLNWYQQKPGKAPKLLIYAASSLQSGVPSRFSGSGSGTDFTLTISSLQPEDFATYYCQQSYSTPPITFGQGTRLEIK
notes: human IgG1 Fc (H1H prefix)
One may read the Kd as the concentration at which binding is half-saturated. For orientation: koff means the rate constant with which the complex falls apart. As a reminder, the kon is the second-order rate constant of association. The IC50 is the point on the concentration scale where inhibition reaches its midpoint. On to B1, for which the “Ratio of HEK293/hPD-L1 to HEK293 parental cells” value (from here on “Ratio of HEK293/hPD-L1”) in test [1] came out at 97. In addition, the “Emax mean [%] @ 100 nM” value in test [2] stood at 103%. Moreover, in test [3], the Kd was found to be 0.319 nM, the dissociation rate constant (koff) was found to be 0.000502 s⁻¹, the kon amounted to 1.57e+06 M⁻¹ s⁻¹ and the t1/2 came out at 23 min. Also, the MFI in test [4] was 228000 MFI. For the same molecule, in test [5], the “% maximum blocking” value was 59% and the IC50 was less than 0.25 nM. For the same molecule, the “% maximum blocking” value in test [6] is 8%. Further, the “% Blocking” value in test [7] was -193%.

B2: H1H9354P2 (antibody, V domains shown)
VH: EVQLVESGGGLVQPGGSLRLSCEASGFTVGVNHMNWVRQAPGKGLEWVSVIFSSGRTFYGDYVKGRLTIFRQTSQNTVYLQMNSLRSEDTAIYYCARGIGGLDIWGRGTMVTVSS
VL: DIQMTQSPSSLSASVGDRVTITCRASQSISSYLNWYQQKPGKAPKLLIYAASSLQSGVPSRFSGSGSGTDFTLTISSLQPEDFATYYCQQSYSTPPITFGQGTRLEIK
notes: human IgG1 Fc (H1H prefix)
B2: the “Ratio of HEK293/hPD-L1” value in test [1] was found to be 125. Also, the “Emax mean [%] @ 100 nM” value in test [2] was 89.9%. Also, in test [3], the Kd stood at 0.746 nM, the koff stood at 0.000203 s⁻¹, the kon worked out at 272000 M⁻¹ s⁻¹ and the t1/2 stood at 57 min. In test [4], this molecule returned an MFI of 276000 MFI. In addition, in test [5], the “% maximum blocking” value was found to be 34% and the IC50 is 0.53 nM. Moreover, the “% maximum blocking” value in test [6] is -13%. In addition, the “% Blocking” value in test [7] was -428%.

B3: H1H9382P2 (antibody, V domains shown)
VH: EVQLVESGGGLVQPGGSLRLSCAASGFTVGTNFMNWVRQAPGKGLEWVSAIYSGGTANYADSVKGRFTISRDTSRNTLYLQMNSLRTEDTAVYYCARGGGMDVWGQGTTVTVSS
VL: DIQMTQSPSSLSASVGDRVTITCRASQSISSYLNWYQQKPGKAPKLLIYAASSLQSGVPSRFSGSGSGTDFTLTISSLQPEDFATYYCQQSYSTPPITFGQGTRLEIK
notes: human IgG1 Fc (H1H prefix)
As to B3, the “Ratio of HEK293/hPD-L1” value in test [1] turned out to be 140. Moreover, the “Emax mean [%] @ 100 nM” value in test [2] was determined as 86.5%. In addition, in test [3], the Kd was 0.825 nM, the koff stood at 0.000235 s⁻¹, the on-rate constant (kon) amounted to 284000 M⁻¹ s⁻¹ and the t1/2 was 49 min. Besides, the MFI in test [4] is 206000 MFI. In test [5], the “% maximum blocking” value stood at 39% and the IC50 was less than 0.25 nM. Further, the “% maximum blocking” value in test [6] was -30%. Moreover, in test [7], the “% Blocking” value was -448%.

B4: H1H9345P2 (antibody, V domains shown)
VH: EVQLVESGGGLVQPGGSLRLSCAASGFTISTNYMNWVRQAPGKGLEWVAVIYSSGSTYYIDSVKGRFTISRLTSKNTVYLQMSSLNSEDTAVYYCARGIRGFDIWGQGTMVTVSS
VL: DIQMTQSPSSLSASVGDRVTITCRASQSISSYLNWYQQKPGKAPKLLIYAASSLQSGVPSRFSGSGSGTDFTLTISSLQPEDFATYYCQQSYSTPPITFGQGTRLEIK
notes: human IgG1 Fc (H1H prefix)
As for B4, in test [1], the “Ratio of HEK293/hPD-L1” value worked out at 121. Besides, in test [2], the “Emax mean [%] @ 100 nM” value was 89.2%. Besides, in test [3], the Kd was found to be 0.339 nM, the off-rate constant (koff) turned out to be 0.000292 s⁻¹, the kon is 861000 M⁻¹ s⁻¹ and the t1/2 is 40 min. The MFI in test [4] amounted to 228000 MFI. Besides, in test [5], the “% maximum blocking” value was 26% and the IC50 is less than 0.25 nM. Besides, in test [6], the “% maximum blocking” value is -34%. Besides, in test [7], the “% Blocking” value is -422%.

B5: H1H9387P2 (antibody, V domains shown)
VH: QVQLVQSGAEVKKPGSSVKVSCKASGGTFNTYVLSWVRQAPGQGLEWMGEIIPILGAANYAQNFQGRVTFTTDESTNTAYMDLSSLRSEDTAVYYCARDRTSGGFDPWGQGTLVTVSS
VL: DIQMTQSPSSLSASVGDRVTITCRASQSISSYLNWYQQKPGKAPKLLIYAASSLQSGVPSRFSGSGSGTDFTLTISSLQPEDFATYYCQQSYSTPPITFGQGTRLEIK
notes: human IgG1 Fc (H1H prefix)
With B5, the “Ratio of HEK293/hPD-L1” value in test [1] came to 263. In test [2], the “Concentration [M] of Antibody at 125% activation” value turned out to be 1.86e-11 M and the “Emax mean [%] @ 100 nM” value was found to be 141%. Further, in test [3], the Kd was 0.139 nM and 0.161 nM; the koff was 0.000474 s⁻¹ and 0.000465 s⁻¹; the association rate constant (kon) is 3.41e+06 M⁻¹ s⁻¹ and 2.9e+06 M⁻¹ s⁻¹; the t1/2 was 24 min and 25 min. Also, the MFI in test [4] came out at 324000 MFI. Besides, in test [5], the “% maximum blocking” value amounted to 100% and the IC50 was less than 0.25 nM. Further, in test [6], the “% maximum blocking” value came out at 100% and the IC50 was less than 4 nM. Further, the “% Blocking” value in test [7] amounted to 91%.

B6: H1H9329P (antibody, V domains shown)
VH: EVQLVESGGGLVQSGGSLRLSCAASGFTFSSYWMSWVRQAPGKGLEWVANIKQDGSEKYYVDSVKGRFTISRDNAKNSLYLQMNSLRADDTAVYYCARDDIVVVPAPMGYYYYYFGMDVWGQGTTVTVSS
VL: DIQMTQSPSSLSASVGDRVTITCRASQGIRNDLGWYQQKPGKAPKRLIYAASSLQSGVPSRFSGSGSGTEFTLTISSLQPEDFATYYCLQHNSYPYTFGQGTKLEIK
notes: human IgG1 Fc (H1H prefix)
On to B6, for which, in test [1], the “Ratio of HEK293/hPD-L1” value was found to be 188. Besides, the “Emax mean [%] @ 100 nM” value in test [2] worked out at 124%. For the same molecule, in test [3], the Kd is 0.708 nM, the koff amounted to 0.00154 s⁻¹, the kon turned out to be 2.18e+06 M⁻¹ s⁻¹ and the t1/2 came out at 8 min. For the same molecule, the MFI in test [4] was 282000 MFI. In test [5], the “% maximum blocking” value came to 100% and the IC50 is less than 0.25 nM. In addition, in test [6], the “% maximum blocking” value was 100% and the concentration for half-maximal inhibition (IC50) came to 4.9 nM. For the same molecule, in test [7], the “% Blocking” value was determined as 97%.

B7: H1H9336P (antibody, V domains shown)
VH: EVQLVESGGGLVQPGRSLRLSCAASGFTFDDFAMHWVRQAPGKGLEWVSGISWTGGNMDYANSVKGRFTISREDAKNSLYLQMNSLRAADTALYYCVKDIRGIVATGGAFDIWGRGTMVTVSS
VL: DIQMTQSPSSLSASVGDRVTISCRASQTISTYLNWFQQKPGKAPKLLIYVVSSLQSGVPSRFSGSGSGTDFTLTISSLQPEDFATYYCQQSYSTPFTFGPGTKVDIK
notes: human IgG1 Fc (H1H prefix)
Regarding B7, the “Ratio of HEK293/hPD-L1” value in test [1] amounted to 168. In addition, in test [2], the “Concentration [M] of Antibody at 125% activation” value came out at 9.81e-11 M and the “Emax mean [%] @ 100 nM” value amounted to 163%. For the same molecule, in test [3], the Kd was found to be 0.0247 nM, the koff came to 4.6e-05 s⁻¹, the kon was found to be 1.86e+06 M⁻¹ s⁻¹ and the t1/2 was 251 min. In test [4], this molecule came in with an MFI of 379000 MFI. In test [5], the “% maximum blocking” value was found to be 100% and the IC50 is less than 0.25 nM. In test [6], the “% maximum blocking” value turned out to be 99% and the IC50 is 4.4 nM. Besides, the “% Blocking” value in test [7] worked out at 84%.
